Test results published in patent publication US11866467.

How the values were obtained:
[1] = target: TGF-β receptor (type I and II receptors) on mouse cells (MFB-F11 fibroblasts, mouse splenocytes, mouse CD4+ T cells) (mouse) (UniProt Q64729); assay: cell-based or functional assay
[2] = target: TGF-β receptor on human peripheral blood CD4+ T cells (human) (UniProt P36897); assay: cell-based or functional assay
Chain of UniProt P36897 (P36897 34-503, chain 1 of 2): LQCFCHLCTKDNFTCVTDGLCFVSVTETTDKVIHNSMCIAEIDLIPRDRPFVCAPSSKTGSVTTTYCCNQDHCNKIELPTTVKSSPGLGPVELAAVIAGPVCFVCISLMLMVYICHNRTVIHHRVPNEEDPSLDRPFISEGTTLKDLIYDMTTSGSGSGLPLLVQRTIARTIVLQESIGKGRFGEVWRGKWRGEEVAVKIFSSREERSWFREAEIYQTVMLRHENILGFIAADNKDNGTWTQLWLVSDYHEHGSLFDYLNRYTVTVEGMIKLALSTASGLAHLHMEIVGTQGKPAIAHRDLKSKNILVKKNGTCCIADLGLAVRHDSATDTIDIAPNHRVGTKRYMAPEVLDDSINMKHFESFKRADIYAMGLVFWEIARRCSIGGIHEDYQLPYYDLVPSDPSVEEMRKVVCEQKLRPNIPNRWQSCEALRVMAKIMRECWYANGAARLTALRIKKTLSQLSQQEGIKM
Chain of UniProt P36897 (P37173 23-567, chain 2 of 2, further chain): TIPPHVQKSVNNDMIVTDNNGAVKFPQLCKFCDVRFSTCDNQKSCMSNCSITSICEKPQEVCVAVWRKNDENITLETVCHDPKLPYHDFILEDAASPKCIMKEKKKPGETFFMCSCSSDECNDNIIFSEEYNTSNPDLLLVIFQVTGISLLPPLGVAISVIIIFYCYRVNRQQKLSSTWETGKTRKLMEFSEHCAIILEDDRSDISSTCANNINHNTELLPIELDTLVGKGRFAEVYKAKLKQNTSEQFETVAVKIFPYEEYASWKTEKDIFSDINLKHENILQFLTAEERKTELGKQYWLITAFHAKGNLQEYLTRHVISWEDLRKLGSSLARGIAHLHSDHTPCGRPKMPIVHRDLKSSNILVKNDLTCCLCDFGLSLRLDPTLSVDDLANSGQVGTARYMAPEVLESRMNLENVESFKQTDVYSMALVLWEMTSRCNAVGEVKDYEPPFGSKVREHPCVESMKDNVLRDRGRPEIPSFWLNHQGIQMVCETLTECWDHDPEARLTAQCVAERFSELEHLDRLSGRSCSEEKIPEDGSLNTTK

Chain of UniProt Q64729 (Q64729 30-503, chain 1 of 2): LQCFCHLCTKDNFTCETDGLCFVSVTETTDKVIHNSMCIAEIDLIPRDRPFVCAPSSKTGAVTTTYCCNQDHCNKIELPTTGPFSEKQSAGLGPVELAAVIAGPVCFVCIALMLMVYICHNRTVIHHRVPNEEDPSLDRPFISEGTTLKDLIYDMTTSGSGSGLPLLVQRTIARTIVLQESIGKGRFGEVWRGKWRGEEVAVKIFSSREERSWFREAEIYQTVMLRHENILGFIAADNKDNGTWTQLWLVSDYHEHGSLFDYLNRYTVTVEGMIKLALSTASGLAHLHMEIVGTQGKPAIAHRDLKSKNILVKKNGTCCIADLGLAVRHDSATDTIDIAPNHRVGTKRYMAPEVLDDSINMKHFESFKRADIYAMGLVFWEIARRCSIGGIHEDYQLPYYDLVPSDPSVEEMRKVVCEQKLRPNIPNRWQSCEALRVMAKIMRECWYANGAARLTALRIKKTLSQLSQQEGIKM
Chain of UniProt Q64729 (Q62312 24-567, chain 2 of 2, further chain): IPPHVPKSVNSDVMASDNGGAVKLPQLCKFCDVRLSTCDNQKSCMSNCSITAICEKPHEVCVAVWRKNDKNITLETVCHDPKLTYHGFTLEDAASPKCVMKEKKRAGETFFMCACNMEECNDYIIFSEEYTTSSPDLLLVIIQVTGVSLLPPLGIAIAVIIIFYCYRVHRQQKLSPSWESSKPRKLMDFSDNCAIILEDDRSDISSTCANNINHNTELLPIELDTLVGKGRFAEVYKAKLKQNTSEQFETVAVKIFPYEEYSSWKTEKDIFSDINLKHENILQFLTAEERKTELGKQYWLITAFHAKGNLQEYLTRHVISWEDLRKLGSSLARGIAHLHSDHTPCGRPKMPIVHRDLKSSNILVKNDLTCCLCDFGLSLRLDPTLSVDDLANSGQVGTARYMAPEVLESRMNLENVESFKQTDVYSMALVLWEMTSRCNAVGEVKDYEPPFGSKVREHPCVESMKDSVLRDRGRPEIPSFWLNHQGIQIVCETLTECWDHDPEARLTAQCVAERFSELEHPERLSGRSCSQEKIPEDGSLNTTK

| Foxp3+ Treg conversion, % of all mouse CD4+ cells at 10 ng/ml (0.78 nM monomeric hTGF-β1) [1] | Substance | Foxp3+ Treg conversion, % of all mouse CD4+ cells at 38.1 ng/ml (0.78 nM) [1] | MFB-F11 reporter cells, alkaline phosphatase, OD405 at 100 ng/ml (maximum signal) [1] | CD4+CD25+Foxp3+ Treg among human CD4+ T cells, maximum [2] |
| --- | --- | --- | --- | --- |
| – | H. polygyrus TGF-β Mimic (TGM), purified recombinant protein with hexa-histidine C-terminal tag (ligand) | 90.7% | 2.46 OD405 | 84% |
| 79.7% | recombinant human TGF-β1 (R&D Systems) (from UniProt P01137 279-390) (ligand) | – | 1.48 OD405 | – |
